Laboratory results taken from patent publication US20250222128A1 (Zymeworks, published 2025).
Changes are numbered by the printed parent chain.

B1: v17427 (telisotuzumab paratope, HetFc, unmodified hinge, full-size IgG1 antibody) (antibody)
heavy 1: QVQLVQSGAEVKKPGASVKVSCKASGYIFTAYTMHWVRQAPGQGLEWMGWIKPNNGLANYAQKFQGRVTMTRDTSISTAYMELSRLRSDDTAVYYCARSEITTEFDYWGQGTLVTVSSASTKGPSVFPLAPSSKSTSGGTAALGCLVKDYFPEPVTVSWNSGALTSGVHTFPAVLQSSGLYSLSSVVTVPSSSLGTQTYICNVNHKPSNTKVDKKVEPKSCDKTHTCPPCPAPELLGGPSVFLFPPKPKDTLMISRTPEVTCVVVDVSHEDPEVKFNWYVDGVEVHNAKTKPREEQYNSTYRVVSVLTVLHQDWLNGKEYKCKVSNKALPAPIEKTISKAKGQPREPQVYVYPPSRDELTKNQVSLTCLVKGFYPSDIAVEWESNGQPENNYKTTPPVLDSDGSFALVSKLTVDKSRWQQGNVFSCSVMHEALHNHYTQKSLSLSPG
heavy 2: not shown
light: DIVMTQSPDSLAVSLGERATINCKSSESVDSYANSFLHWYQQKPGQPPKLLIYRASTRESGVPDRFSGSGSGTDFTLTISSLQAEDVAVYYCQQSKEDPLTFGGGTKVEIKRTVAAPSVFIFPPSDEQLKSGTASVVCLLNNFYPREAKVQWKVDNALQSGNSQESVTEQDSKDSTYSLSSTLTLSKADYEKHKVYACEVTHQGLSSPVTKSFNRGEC
notes: also called variant v17427; unconjugated HetFc variant
B2: v17427-Drug-Linker 002 DAR 4 (antibody)
heavy 1: B1 heavy 1
heavy 2: not shown
light: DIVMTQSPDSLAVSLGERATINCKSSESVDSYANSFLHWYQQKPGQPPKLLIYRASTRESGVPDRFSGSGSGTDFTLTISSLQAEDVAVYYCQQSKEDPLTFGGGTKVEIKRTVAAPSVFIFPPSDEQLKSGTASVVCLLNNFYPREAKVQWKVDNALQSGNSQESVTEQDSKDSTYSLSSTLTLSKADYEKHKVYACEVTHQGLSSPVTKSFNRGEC
modifications: Drug-Linker 002 stochastically conjugated to lysine residues of the antibody, about DAR 4; Drug-Linker 002 (auristatin analogue Compound 1) stochastically conjugated to lysine residues of the antibody, about DAR 4
notes: Antibody-drug conjugate of v17427
B3: v17427-Drug-Linker 002 DAR 6 (antibody)
heavy 1: B1 heavy 1
heavy 2: not shown
light: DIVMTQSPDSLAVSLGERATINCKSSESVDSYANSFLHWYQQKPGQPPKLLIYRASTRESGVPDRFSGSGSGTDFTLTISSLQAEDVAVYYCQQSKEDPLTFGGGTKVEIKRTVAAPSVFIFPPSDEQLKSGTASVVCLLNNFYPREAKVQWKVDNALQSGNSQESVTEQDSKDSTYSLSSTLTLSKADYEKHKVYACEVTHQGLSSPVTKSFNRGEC
modifications: Drug-Linker 002 stochastically conjugated to lysine residues of the antibody, about DAR 6; Drug-Linker 002 (auristatin analogue Compound 1) stochastically conjugated to lysine residues of the antibody, about DAR 6
notes: as for B2
B4: v29001 (telisotuzumab paratope, HetFc, unmodified hinge, two cysteine insertions between T299 and Y300) (antibody, human IgG1, kappa)
heavy 1: QVQLVQSGAEVKKPGASVKVSCKASGYIFTAYTMHWVRQAPGQGLEWMGWIKPNNGLANYAQKFQGRVTMTRDTSISTAYMELSRLRSDDTAVYYCARSEITTEFDYWGQGTLVTVSSASTKGPSVFPLAPSSKSTSGGTAALGCLVKDYFPEPVTVSWNSGALTSGVHTFPAVLQSSGLYSLSSVVTVPSSSLGTQTYICNVNHKPSNTKVDKKVEPKSCDKTHTCPPCPAPELLGGPSVFLFPPKPKDTLMISRTPEVTCVVVDVSHEDPEVKFNWYVDGVEVHNAKTKPREEQYNSTCYRVVSVLTVLHQDWLNGKEYKCKVSNKALPAPIEKTISKAKGQPREPQVYVYPPSRDELTKNQVSLTCLVKGFYPSDIAVEWESNGQPENNYKTTPPVLDSDGSFALVSKLTVDKSRWQQGNVFSCSVMHEALHNHYTQKSLSLSPG
heavy 2: B4 heavy 1 with Y353L, T368L, K394L, T396W, A407F, V409Y
light: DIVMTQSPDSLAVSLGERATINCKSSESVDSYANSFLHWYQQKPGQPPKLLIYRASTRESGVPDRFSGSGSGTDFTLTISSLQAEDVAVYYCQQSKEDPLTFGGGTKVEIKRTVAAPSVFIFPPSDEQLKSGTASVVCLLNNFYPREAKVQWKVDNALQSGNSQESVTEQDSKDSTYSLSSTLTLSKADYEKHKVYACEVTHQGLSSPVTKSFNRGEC
notes: also called variant v29001; cysteine insertion variant v29001
B5: v29001-Drug-Linker 001 DAR 2 (antibody, human IgG1, kappa)
heavy 1: B4 heavy 1
heavy 2: B4 heavy 1 with Y353L, T368L, K394L, T396W, A407F, V409Y
light: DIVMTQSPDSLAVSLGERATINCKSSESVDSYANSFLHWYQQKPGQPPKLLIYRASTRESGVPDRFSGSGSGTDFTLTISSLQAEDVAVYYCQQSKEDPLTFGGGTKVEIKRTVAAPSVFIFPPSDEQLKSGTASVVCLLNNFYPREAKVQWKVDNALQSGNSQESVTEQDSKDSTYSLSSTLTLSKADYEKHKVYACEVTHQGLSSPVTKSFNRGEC
modifications: Drug-Linker 001 on the cysteine inserted between T299 and Y300 (EU); Drug-Linker 001 (auristatin analogue Compound 1) on the cysteine inserted between T299 and Y300 (EU)
notes: Site-specific cysteine-conjugated antibody-drug conjugate of v29001
B6: v29001-Drug-Linker 003 DAR 4 (antibody, human IgG1, kappa)
heavy 1: B4 heavy 1
heavy 2: B4 heavy 1 with Y353L, T368L, K394L, T396W, A407F, V409Y
light: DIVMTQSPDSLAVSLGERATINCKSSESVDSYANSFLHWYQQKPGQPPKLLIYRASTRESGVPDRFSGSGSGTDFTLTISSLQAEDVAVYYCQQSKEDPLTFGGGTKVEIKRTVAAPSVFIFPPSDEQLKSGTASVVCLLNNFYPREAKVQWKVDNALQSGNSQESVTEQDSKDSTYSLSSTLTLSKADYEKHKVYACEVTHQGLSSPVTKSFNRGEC
modifications: bivalent Drug-Linker 003 on the cysteine inserted between T299 and Y300 (EU); bivalent Drug-Linker 003 (two Compound 1) on the cysteine inserted between T299 and Y300 (EU)
notes: as for B5
B7: v29001-Drug-Linker 004 DAR 6 (antibody, human IgG1, kappa)
heavy 1: B4 heavy 1
heavy 2: B4 heavy 1 with Y353L, T368L, K394L, T396W, A407F, V409Y
light: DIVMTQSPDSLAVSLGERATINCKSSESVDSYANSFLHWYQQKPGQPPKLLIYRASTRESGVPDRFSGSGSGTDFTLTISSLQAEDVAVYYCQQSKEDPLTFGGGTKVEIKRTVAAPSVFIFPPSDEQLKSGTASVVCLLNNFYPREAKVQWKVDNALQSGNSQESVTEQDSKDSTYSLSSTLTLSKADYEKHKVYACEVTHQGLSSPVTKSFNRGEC
modifications: trivalent Drug-Linker 004 on the cysteine inserted between T299 and Y300 (EU); trivalent Drug-Linker 004 (three Compound 1) on the cysteine inserted between T299 and Y300 (EU)
notes: as for B5
B8: v32634 (telisotuzumab paratope, HomoFc, unmodified hinge, full-size IgG1 antibody) (antibody, V domains shown)
VH: QVQLVQSGAEVKKPGASVKVSCKASGYIFTAYTMHWVRQAPGQGLEWMGWIKPNNGLANYAQKFQGRVTMTRDTSISTAYMELSRLRSDDTAVYYCARSEITTEFDYWGQGTLVTVSS
VL: DIVMTQSPDSLAVSLGERATINCKSSESVDSYANSFLHWYQQKPGQPPKLLIYRASTRESGVPDRFSGSGSGTDFTLTISSLQAEDVAVYYCQQSKEDPLTFGGGTKVEIKR
notes: also called variant v32634; unconjugated HomoFc variant
B9: v32634-Drug-Linker 002 DAR6 (antibody, V domains shown)
VH: B8 VH
VL: B8 VL
modifications: Drug-Linker 002 stochastically conjugated to lysine residues of the antibody, about DAR 6; Drug-Linker 002 (auristatin analogue Compound 1) stochastically conjugated to lysine residues of the antibody, about DAR 6
notes: Antibody-drug conjugate of v32634
B10: v32634-Drug-Linker 002 DAR4 (antibody, V domains shown)
VH: B8 VH
VL: B8 VL
modifications: Drug-Linker 002 stochastically conjugated to lysine residues of the antibody, about DAR 4; Drug-Linker 002 (auristatin analogue Compound 1) stochastically conjugated to lysine residues of the antibody, about DAR 4
notes: as for B9

biological target: T1, c-Met (hepatocyte growth factor receptor, HGFR), endogenous on tumour cell lines (UniProt P08581 25-1390, limits assumed); assay: flow cytometry on SNU-5 cells (endogenous cMet), as in Example 10
T1 construct: whole, on cells
Protocol: (§1) Briefly, cells were seeded at 50,000 cells/well in V-bottom 96-well plates and treated with antibody for 24 hours at 4° C. to prevent internalization. Following incubation, cells were washed and stained with anti-human IgG Fc AF647 conjugate (Jackson ImmunoResearch Laboratories, Inc., West Grove, PA; Cat. No. 109-605-098) at 4° C. for 30 min. Following incubation and washing, fluorescence was detected by flow cytometry on a BD LSRFortessa™ Cell Analyzer (BD Biosciences, Franklin Lake, NJ) with 1,000 minimum events collected per well. AF647/APC-A GeoMean (fluorescence signal geometric mean, proportional to anti-Human AF647 binding) in live cell population was plotted using GraphPad Prism Version 8 (GraphPad Software, San Diego, CA).
(§2) Cellular binding was determined as described in Example 10.

T1 sequence (P08581 25-1390 limits assumed): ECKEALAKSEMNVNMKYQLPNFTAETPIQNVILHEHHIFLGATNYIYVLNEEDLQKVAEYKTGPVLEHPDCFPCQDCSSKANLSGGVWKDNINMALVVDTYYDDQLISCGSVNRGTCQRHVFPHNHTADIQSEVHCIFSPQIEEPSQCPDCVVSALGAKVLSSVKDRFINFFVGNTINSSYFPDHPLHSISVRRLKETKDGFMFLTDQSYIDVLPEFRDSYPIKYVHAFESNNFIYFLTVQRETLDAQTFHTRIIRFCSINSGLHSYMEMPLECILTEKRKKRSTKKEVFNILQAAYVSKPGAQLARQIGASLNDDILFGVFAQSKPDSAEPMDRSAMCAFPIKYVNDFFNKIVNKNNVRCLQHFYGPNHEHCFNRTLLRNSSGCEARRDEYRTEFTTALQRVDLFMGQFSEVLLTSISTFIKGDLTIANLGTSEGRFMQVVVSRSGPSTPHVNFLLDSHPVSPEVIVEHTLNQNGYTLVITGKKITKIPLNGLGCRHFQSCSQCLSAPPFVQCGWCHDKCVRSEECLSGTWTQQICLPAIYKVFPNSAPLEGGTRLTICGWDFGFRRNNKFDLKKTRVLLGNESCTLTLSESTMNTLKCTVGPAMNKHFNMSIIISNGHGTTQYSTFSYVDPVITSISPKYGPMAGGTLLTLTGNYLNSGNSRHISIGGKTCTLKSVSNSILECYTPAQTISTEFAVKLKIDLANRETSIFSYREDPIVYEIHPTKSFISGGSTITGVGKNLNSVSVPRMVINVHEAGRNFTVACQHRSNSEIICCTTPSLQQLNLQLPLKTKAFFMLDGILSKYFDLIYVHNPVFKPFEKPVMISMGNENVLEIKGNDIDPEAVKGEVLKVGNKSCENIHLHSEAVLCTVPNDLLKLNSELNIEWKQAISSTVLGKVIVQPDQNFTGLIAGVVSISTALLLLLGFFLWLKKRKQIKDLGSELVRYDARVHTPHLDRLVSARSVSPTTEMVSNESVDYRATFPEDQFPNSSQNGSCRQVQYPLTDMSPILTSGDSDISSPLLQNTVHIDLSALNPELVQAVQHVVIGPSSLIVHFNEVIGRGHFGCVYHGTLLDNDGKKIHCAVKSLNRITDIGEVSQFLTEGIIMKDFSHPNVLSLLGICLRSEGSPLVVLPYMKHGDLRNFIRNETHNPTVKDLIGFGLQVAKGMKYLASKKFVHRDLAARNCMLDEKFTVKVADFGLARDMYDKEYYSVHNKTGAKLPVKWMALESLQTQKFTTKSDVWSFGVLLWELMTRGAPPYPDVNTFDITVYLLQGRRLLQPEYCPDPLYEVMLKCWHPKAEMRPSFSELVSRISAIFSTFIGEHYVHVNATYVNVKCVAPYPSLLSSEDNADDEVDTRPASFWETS

| Binder | Bmax |
| --- | --- |
| B1 | 34800 AF647 GeoMean fluorescence |
| B2 | 34100 AF647 GeoMean fluorescence |
| B3 | 33500 AF647 GeoMean fluorescence |
| B4 | 32100 AF647 GeoMean fluorescence |
| B5 | 35800 AF647 GeoMean fluorescence |
| B6 | 38600 AF647 GeoMean fluorescence |
| B7 | 37700 AF647 GeoMean fluorescence |

biological target: T1, c-Met (hepatocyte growth factor …); assay: flow cytometry on SNU-5 cells (endogenous cMet), 24 h at 4 C, anti-human IgG Fc AF647
Protocol: as §1

| Binder | Bmax |
| --- | --- |
| B8 | 37200 AF647 GeoMean fluorescence |
| B9 | 41100 AF647 GeoMean fluorescence |
| B1 | 34800 AF647 GeoMean fluorescence |
| B2 | 34100 AF647 GeoMean fluorescence |
| B3 | 33500 AF647 GeoMean fluorescence |
| B10 | 33700 AF647 GeoMean fluorescence |

biological target: T1, c-Met (hepatocyte growth factor …); assay: apparent Kd, flow cytometry on SNU-5 cells (endogenous cMet)
Protocol: as §1

| Binder | Kd [nM] |
| --- | --- |
| B8 | 0.59 |
| B9 | 0.71 |
| B1 | 0.33 |
| B2 | 0.43 |
| B3 | 0.43 |
| B10 | 0.46 |

biological target: T1, c-Met (hepatocyte growth factor …); assay: as above; remark: another data set of the same source
Protocol: as §1, §2

| Binder | Kd [nM] |
| --- | --- |
| B1 | 0.328 |
| B2 | 0.428 |
| B3 | 0.435 |
| B4 | 0.428 |
| B5 | 0.584 |
| B6 | 1.13 |
| B7 | 0.615 |

biological target: T1, c-Met (hepatocyte growth factor …); assay: apparent Kd, flow cytometry on H292 cells (endogenous cMet)
Protocol: as §1

| Binder | Kd [nM] |
| --- | --- |
| B8 | 0.02 |
| B1 | 0.03 |
| B2 | 0.04 |
| B3 | 0.05 |

biological target: T1, c-Met (hepatocyte growth factor …); assay: flow cytometry on H292 cells (endogenous cMet), as in Example 10
Protocol: as §1, §2

| Binder | Bmax |
| --- | --- |
| B1 | 2120 AF647 GeoMean fluorescence |
| B2 | 2120 AF647 GeoMean fluorescence |
| B3 | 2150 AF647 GeoMean fluorescence |
| B4 | 2040 AF647 GeoMean fluorescence |
| B5 | 2070 AF647 GeoMean fluorescence |
| B6 | 2048 AF647 GeoMean fluorescence |
| B7 | 2010 AF647 GeoMean fluorescence |

biological target: T1, c-Met (hepatocyte growth factor …); assay: flow cytometry on H292 cells (endogenous cMet), 24 h at 4 C, anti-human IgG Fc AF647
Protocol: as §1

| Binder | Bmax |
| --- | --- |
| B8 | 2240 AF647 GeoMean fluorescence |
| B9 | 2200 AF647 GeoMean fluorescence |
| B1 | 2120 AF647 GeoMean fluorescence |
| B2 | 2120 AF647 GeoMean fluorescence |
| B3 | 2150 AF647 GeoMean fluorescence |
| B10 | 2130 AF647 GeoMean fluorescence |

biological target: T1, c-Met (hepatocyte growth factor …); assay: apparent Kd, flow cytometry on H292 cells (endogenous cMet); remark: another data set of the same source
Protocol: as §1, §2

| Binder | Kd [nM] |
| --- | --- |
| B1 | 0.026 |
| B2 | 0.04 |
| B3 | 0.047 |
| B4 | 0.024 |
| B5 | 0.064 |
| B6 | 0.03 |
| B7 | 0.028 |
